Among the data in article PMC11314397, “Purification and Characterization of Proteinaceous Thermostable α-Amylase Inhibitor from Sardinian Common Bean Nieddone Cultivar (Phaseolus vulgaris L.)” (Plants, 2024) are inhibitory power against α-amylase, CNP-G3 assay; susceptibility against that of human salivary and porcine pancreatic α-amylase and Ki values, retold here.

For assay [1], the target named is α-amylase from Tenebrio molitor (Tenebrio molitor (endogenous in larvae)) (UniProt P56634).
The target in assay [2] is T1, α-amylase from porcine pancreas (porcine, UniProt P00690 16-511).
T1 construct: pancreatic α-amylase, pig, from porcine pancreas; also called porcine pancreatic α-amylase; pig α-amylase; source: bought: Sigma-Aldrich (Type VI-B A3176-2.5MU)
T1 sequence (looked up): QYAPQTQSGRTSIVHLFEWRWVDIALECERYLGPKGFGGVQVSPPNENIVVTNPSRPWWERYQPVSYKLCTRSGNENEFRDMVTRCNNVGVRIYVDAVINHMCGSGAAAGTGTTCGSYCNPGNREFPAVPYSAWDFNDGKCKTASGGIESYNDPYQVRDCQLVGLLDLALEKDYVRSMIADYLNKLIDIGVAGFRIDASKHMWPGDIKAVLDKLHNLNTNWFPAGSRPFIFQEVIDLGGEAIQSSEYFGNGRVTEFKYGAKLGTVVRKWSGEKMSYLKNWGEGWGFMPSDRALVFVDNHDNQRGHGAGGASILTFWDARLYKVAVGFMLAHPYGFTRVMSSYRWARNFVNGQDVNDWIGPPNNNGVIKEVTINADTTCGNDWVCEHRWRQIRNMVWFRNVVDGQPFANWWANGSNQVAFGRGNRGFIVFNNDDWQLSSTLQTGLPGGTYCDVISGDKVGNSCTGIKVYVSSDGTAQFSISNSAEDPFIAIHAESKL
Briefly: enzyme inhibition kinetics (Lineweaver-Burk); porcine α-amylase with 0, 0.25 and 0.50 µM α-AI, CNP-G3 0.1 to 5 mM as substrate, 250 mM sodium phosphate pH 6.5, 60 mM NaCl, 5 mM CaCl2, 500 mM KSCN, 37 °C, 10 min preincubation; mixed-type inhibition. The note with it: both partners purified.

Sequence of α-amylase from Tenebrio molitor (Tenebrio molitor (endogenous in larvae)) (P56634 whole entry): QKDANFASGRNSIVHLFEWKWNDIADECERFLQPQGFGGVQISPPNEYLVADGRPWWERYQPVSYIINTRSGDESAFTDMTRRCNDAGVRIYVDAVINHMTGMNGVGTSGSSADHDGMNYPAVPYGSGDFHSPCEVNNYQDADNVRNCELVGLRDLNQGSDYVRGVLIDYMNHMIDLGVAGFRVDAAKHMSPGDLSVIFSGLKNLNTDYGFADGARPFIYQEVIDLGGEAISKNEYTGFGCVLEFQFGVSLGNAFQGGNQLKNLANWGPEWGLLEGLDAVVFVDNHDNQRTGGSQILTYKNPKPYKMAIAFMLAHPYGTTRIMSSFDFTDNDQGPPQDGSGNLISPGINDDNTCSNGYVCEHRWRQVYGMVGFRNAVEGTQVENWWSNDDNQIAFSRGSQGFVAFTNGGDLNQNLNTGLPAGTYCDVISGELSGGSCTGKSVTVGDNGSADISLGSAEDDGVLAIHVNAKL

B1: α-amylase inhibitor (α-AI) purified from Phaseolus vulgaris Nieddone cultivar (complex)
chain 1: ATETSFIIDAFNKTNLILQGDATVSSNGNLQLSYNSYDSMSRAFYSAPIQIRDSTTGNVASFDTNFTMNIRTHRQAN
chain 2: SAVGLDFVLVPVQPESKGDTVTVEFDTFLSRISIDVNNNDIKSVPWDVHDYDGQNAEVRITYNSSTKVFSVSLSNPSTGKSNNVSTTVELEKEVYDWVSVGFSATSGAYQWSYETHDVLSWSFSSKFINLKDQKSERSN
modifications: native seed glycoprotein (N-glycosylated; sites not given); alpha2beta2 tetramer cleaved after Asn77 (mature numbering, = Asn100 of precursor). Reference sequence P02873 used: Nieddone cultivar …
In assay [1], B1 displayed an inhibitory power against α-amylase, CNP-G3 assay; susceptibility against that of human salivary and porcine pancreatic α-amylase of 3 fold. Besides, the Ki in assay [2] was 170 nM.
